# Reference: publication PMC7954794, “Protein context shapes the specificity of SH3 domain-mediated interactions in vivo” (Nature Communications, 2021)
# B1: YML016C (protein, UniProt P26570 2-692, looked up)
# Serine/threonine-protein …: GNSSSKSSKKDSHSNSSSRNPRPQVSRTETSHSVKSAKSNKSSRSRRSLPSSSTTNTNSNVPDPSTPSKPNLEVNHQRHSSHTNRYHFPSSSHSHSNSQNELLTTPSSSSTKRPSTSRRSSYNTKAAADLPPSMIQMEPKSPILKTNNSSTHVSKHKSSYSSTYYENALTDDDNDDKDNDISHTKRFSRSSNSRPSSIRSGSVSRRKSDVTHEEPNNGSYSSNNQENYLVQALTRSNSHASSLHSRKSSFGSDGNTAYSTPLNSPGLSKLTDHSGEYFTSNSTSSLNHHSSRDIYPSKHISNDDDIENSSQLSNIHASMENVNDKNNNITDSKKDPNEEFNDIMQSSGNKNAPKKFKKPIDIDETIQKLLDAGYAAKRTKNVCLKNNEILQICIKAREIFLSQPSLLELSPPVKIVGDVHGQYGDLLRLFTKCGFPPSSNYLFLGDYVDRGKQSLETILLLFCYKIKYPENFFLLRGNHECANVTRVYGFYDECKRRCNIKIWKTFIDTFNTLPLAAIVAGKIFCVHGGLSPVLNSMDEIRHVVRPTDVPDFGLINDLLWSDPTDSPNEWEDNERGVSYCYNKVAINKFLNKFGFDLVCRAHMVVEDGYEFFNDRSLVTVFSAPNYCGEFDNWGAVMSVSEGLLCSFELLDPLDSAALKQVMKKGRQERKLANQQQQMMETSITNDNESQQ
# B2: YKL051W (protein, UniProt P35735 1-353, looked up)
# Protein SFK1: MIQFKSPGNWLFIVPWIAFIPWYGMLIAMLICWASQGHPIYWFMHSEQFPVYISDIGATNLRPLFISCAGWQGLGYVITVALEFFQRSGYLPFQLKKKDPSISDSTSYAEKLHSGKYLMPPYYTKDERNLIFAAFVLGSIGELALLFSSIFSTALYHRVHIAMVSVFVVFMFLSTCCLIAEYFLMGRHYASVHPLASPHFNPQSSEKSFNQDYNTVDELPWYKWKGHVWNKFTISATLKVIWLTLAVVWAICFGAINDRSKSACFEWLLAFWFGIIFMILSADFYLGGRYRQSRYFNHVESFSGYYKYDKALGLYHSEDVLPSDDNAGVIATETASSNIYNNSSSNESIQVVV
# B3: YBR200W (protein, UniProt P29366 1-551, looked up)
# Bud emergence protein 1: MLKNFKLSKRDSNGSKGRITSADISTPSHDNGSVIKHIKTVPVRYLSSSSTPVKSQRDSSPKNRHNSKDITSPEKVIKAKYSYQAQTSKELSFMEGEFFYVSGDEKDWYKASNPSTGKEGVVPKTYFEVFDRTKPSSVNGSNSSSRKVTNDSLNMGSLYAIVLYDFKAEKADELTTYVGENLFICAHHNCEWFIAKPIGRLGGPGLVPVGFVSIIDIATGYATGNDVIEDIKSVNLPTVQEWKSNIARYKASNISLGSVEQQQQQSITKPQNKSAKLVDGELLVKASVESFGLEDEKYWFLVCCELSNGKTRQLKRYYQDFYDLQVQLLDAFPAEAGKLRDAGGQWSKRIMPYIPGPVPYVTNSITKKRKEDLNIYVADLVNLPDYISRSEMVHSLFVVLNNGFDREFERDENQNNIKTLQENDTATFATASQTSNFASTNQDNTLTGEDLKLNKKLSDLSLSGSKQAPAQSTSGLKTTKIKFYYKDDIFALMLKGDTTYKELRSKIAPRIDTDNFKLQTKLFDGSGEEIKTDSQVSNIIQAKLKISVHDI
# B4: YCR002C (protein, UniProt P25342 1-322, looked up)
# Cell division control protein …: MDPLSSVQPASYVGFDTITNQIEHRLLKKGFQFNIMVVGQSGLGKSTLINTLFASHLIDSATGDDISALPVTKTTEMKISTHTLVEDRVRLNINVIDTPGFGDFIDNSKAWEPIVKYIKEQHSQYLRKELTAQRERFITDTRVHAILYFLQPNGKELSRLDVEALKRLTEIANVIPVIGKSDTLTLDERTEFRELIQNEFEKYNFKIYPYDSEELTDEELELNRSVRSIIPFAVVGSENEIEINGETFRGRKTRWSAINVEDINQCDFVYLREFLIRTHLQDLIETTSYIHYEGFRARQLIALKENANSRSSAHMSSNAIQR
# B5: YGR281W (protein, UniProt P53049 1-1477, looked up)
# Oligomycin resistance …: MTITVGDAVSETELENKSQNVVLSPKASASSDISTDVDKDTSSSWDDKSLLPTGEYIVDRNKPQTYLNSDDIEKVTESDIFPQKRLFSFLHSKKIPEVPQTDDERKIYPLFHTNIISNMFFWWVLPILRVGYKRTIQPNDLFKMDPRMSIETLYDDFEKNMIYYFEKTRKKYRKRHPEATEEEVMENAKLPKHTVLRALLFTFKKQYFMSIVFAILANCTSGFNPMITKRLIEFVEEKAIFHSMHVNKGIGYAIGACLMMFVNGLTFNHFFHTSQLTGVQAKSILTKAAMKKMFNASNYARHCFPNGKVTSFVTTDLARIEFALSFQPFLAGFPAILAICIVLLIVNLGPIALVGIGIFFGGFFISLFAFKLILGFRIAANIFTDARVTMMREVLNNIKMIKYYTWEDAYEKNIQDIRTKEISKVRKMQLSRNFLIAMAMSLPSIASLVTFLAMYKVNKGGRQPGNIFASLSLFQVLSLQMFFLPIAIGTGIDMIIGLGRLQSLLEAPEDDPNQMIEMKPSPGFDPKLALKMTHCSFEWEDYELNDAIEEAKGEAKDEGKKNKKKRKDTWGKPSASTNKAKRLDNMLKDRDGPEDLEKTSFRGFKDLNFDIKKGEFIMITGPIGTGKSSLLNAMAGSMRKTDGKVEVNGDLLMCGYPWIQNASVRDNIIFGSPFNKEKYDEVVRVCSLKADLDILPAGDMTEIGERGITLSGGQKARINLARSVYKKKDIYLFDDVLSAVDSRVGKHIMDECLTGMLANKTRILATHQLSLIERASRVIVLGTDGQVDIGTVDELKARNQTLINLLQFSSQNSEKEDEEQEAVVAGELGQLKYESEVKELTELKKKATEMSQTANSGKIVADGHTSSKEERAVNSISLKIYREYIKAAVGKWGFIALPLYAILVVGTTFCSLFSSVWLSYWTENKFKNRPPSFYMGLYSFFVFAAFIFMNGQFTILCAMGIMASKWLNLRAVKRILHTPMSYIDTTPLGRILNRFTKDTDSLDNELTESLRLMTSQFANIVGVCVMCIVYLPWFAIAIPFLLVIFVLIADHYQSSGREIKRLEAVQRSFVYNNLNEVLGGMDTIKAYRSQERFLAKSDFLINKMNEAGYLVVVLQRWVGIFLDMVAIAFALIITLLCVTRAFPISAASVGVLLTYVLQLPGLLNTILRAMTQTENDMNSAERLVTYATELPLEASYRKPEMTPPESWPSMGEIIFENVDFAYRPGLPIVLKNLNLNIKSGEKIGICGRTGAGKSTIMSALYRLNELTAGKILIDNVDISQLGLFDLRRKLAIIPQDPVLFRGTIRKNLDPFNERTDDELWDALVRGGAIAKDDLPEVKLQKPDENGTHGKMHKFHLDQAVEEEGSNFSLGERQLLALTRALVRQSKILILDEATSSVDYETDGKIQTRIVEEFGDCTILCIAHRLKTIVNYDRILVLEKGEVAEFDTPWTLFSQEDSIFRSMCSRSGIVENDFENRS
# B6: YGR238C (protein, UniProt P50090 1-882, looked up)
# Kelch repeat-containing …: MVPFKLTNKVPTDTGPSLISAQSVPRPIVFMDNRNNTRIVTPTLPPNQHRGISGASTALPWSPESKNTGKYIWNRVKLKNSPFPRYRHSSSFIVTNDNRIFVTGGLHDQSVYGDVWQIAANADGTSFTSKRIDIDQNTPPPRVGHASTICGNAYVVFGGDTHKLNKNGLLDDDLYLFNINSYKWTIPQPIGRRPLGRYGHKISIIASNPMQTKLYLFGGQVDETYFNDLVVFDLSSFRRPNSHWEFLEPVGDLPPPLTNHTMVAYDNKLWVFGGETPKTISNDTYRYDPAQSEWSKVKTTGEKPPPIQEHASVVYKHLMCVLGGKDTHNAYSNDVYFLNLLSLKWYKLPRMKEGIPQERSGHSLTLMKNEKLLIMGGDKTDYASPNIHDLQTSETDQGEGTLLYTLDLSSLNELCPGIMCESLHAGESFSNSLSGGFTPSKSTESENQEIINILTPRLPDSKVLSYNDIDEGAGSYSSALDDKAFERKSDREEKKPQSSKVDSSINKESPGTGIKVSKKNFPVLRGLTVDSEEYGSSSYKDTSCQKGIPKNLFDDLNLNLQTLRLEAQQKELETARHISQLEKEVQRLMVIKEASKDSNFQTARLKNLEIQKTFLESRINDLKNLLMVKLSQASKLCDQITIQNNGLKTCSEHVTIKRDIIDLENKCDVLKRQNEILVNNMQKITPELHTYLNESSCYLGKLLKSYPTSARPPSSEKDNQIYEKDSLNKIEKVINEMHETVRAKEKLHLETQKLNDERDSLRANLLDNNNKLDALRKLSDGSSKSMDLTKKAIHLSQSELEKYRKNNDDLQKEIDRIKTEQAEQDDKQEQRGAITHGNFDAFHRMKINNLKAELYMSKENRDSLKDELLALKKKLYTLEQKK
# Tested on: BEM1-2
# Test: DHFR-PCA on solid medium, bait BEM1-2 (Fig. 1B)
# Assay type: cell-based, Saccharomyces cerevisiae
# Conditions: bait BEM1-2, label = prey; 2-8 replicates
# From the text: (§1) Supplement 41467_2021_21873_MOESM8_ESM.xlsx, sheet "Fig1B" | column: medsize; medrep; Ratio; Score
row,Molecule,"medrep (log2 median colony size normalized to plate background, PCA score)"
1,B1,2.424
2,B2,1.764
3,B3,1.887
4,B4,3.007
5,B5,2.579

# Same assay, conditions: bait BEM1-2, label = prey; only significant differences showed; PPIs completely lost have a ratio of 0.1 and the gained PPIs 2.5
row,Molecule,Ratio (SH3-deleted/WT medrep)
1,B1,0.1
2,B2,0.482
3,B3,0.4478
4,B4,0.1
5,B5,0.1

# Tested on: BBC1
# Test: DHFR-PCA on solid medium, bait BBC1 (Fig. 1B)
# Assay type: cell-based, Saccharomyces cerevisiae
# Conditions: bait BBC1, label = prey; 2-4 replicates
# From the text: as §1
row,Molecule,"medrep (log2 median colony size normalized to plate background, PCA score)"
1,B1,1.933
2,B2,4.283
3,B5,1.516

# Same assay, conditions: bait BBC1, label = prey; only significant differences showed; PPIs completely lost have a ratio of 0.1 and the gained PPIs 2.5
row,Molecule,Ratio (SH3-deleted/WT medrep)
1,B1,0.1
2,B5,0.4155

# Tested on: BEM1-1
# Test: DHFR-PCA on solid medium, bait BEM1-1 (Fig. 1B)
# Assay type: cell-based, Saccharomyces cerevisiae
# Conditions: bait BEM1-1, label = prey; 2-8 replicates
# From the text: as §1
row,Molecule,"medrep (log2 median colony size normalized to plate background, PCA score)"
1,B1,2.424
2,B2,3.661
3,B3,4.2138
4,B4,3.007
5,B5,2.579

# Same assay, conditions: bait BEM1-1, label = prey; only significant differences showed; PPIs completely lost have a ratio of 0.1 and the gained PPIs 2.5
row,Molecule,Ratio (SH3-deleted/WT medrep)
1,B2,0.1

# Tested on: BOI2
# Test: DHFR-PCA on solid medium, bait BOI2 (Fig. 1B)
# Assay type: cell-based, Saccharomyces cerevisiae
# Conditions: bait BOI2, label = prey; 3-8 replicates
# From the text: as §1
row,Molecule,"medrep (log2 median colony size normalized to plate background, PCA score)"
1,B1,2.013
2,B2,3.168
3,B3,4.509
4,B4,1.509
5,B5,2.696

# Tested on: BUD14
# Test: DHFR-PCA on solid medium, bait BUD14 (Fig. 1B)
# Assay type: cell-based, Saccharomyces cerevisiae
# Conditions: bait BUD14, label = prey; 4 replicates
# From the text: as §1
row,Molecule,"medrep (log2 median colony size normalized to plate background, PCA score)"
1,B6,3.527

# Tested on: BOI1
# Test: DHFR-PCA on solid medium, bait BOI1 (Fig. 1B)
# Assay type: cell-based, Saccharomyces cerevisiae
# Conditions: bait BOI1, label = prey; 3-8 replicates
# From the text: as §1
row,Molecule,"medrep (log2 median colony size normalized to plate background, PCA score)"
1,B1,1.566
2,B2,2.409
3,B3,3.166
4,B4,1.419
5,B5,1.486

# Same assay, conditions: bait BOI1, label = prey; only significant differences showed; PPIs completely lost have a ratio of 0.1 and the gained PPIs 2.5
row,Molecule,Ratio (SH3-deleted/WT medrep)
1,B1,2.5
2,B2,1.668
3,B4,0.1
4,B5,2.5

# Tested on: ABP1
# Test: DHFR-PCA on solid medium, bait ABP1 (Fig. 1B)
# Assay type: cell-based, Saccharomyces cerevisiae
# Conditions: bait ABP1, label = prey; 2-4 replicates
# From the text: as §1
row,Molecule,"medrep (log2 median colony size normalized to plate background, PCA score)"
1,B1,2.329
2,B3,1.73
3,B4,2.496

# Same assay, conditions: bait ABP1, label = prey; only significant differences showed; PPIs completely lost have a ratio of 0.1 and the gained PPIs 2.5
row,Molecule,Ratio (SH3-deleted/WT medrep)
1,B1,1.5236
2,B3,2.5
